Measurements reported in patent publication US20090062512A1, “Comparative ligand mapping from MHC class I positive cells” (priority 2000, published 2009).

Key:
Assay type in all cases: cell-based
[1] = target: A*0201 class I MHC molecules in cells infected with the West Nile virus (Homo sapiens, UniProt P04439, D140Y/D185E/D98H/E176V/E277Q/G131W/G231S/I119V/I121R/I166T/I218V/L300P/L318F/N151K/N90K/P208A/P217A/Q86G/Q94H/R138H/R169H/T345S)
[2] = target: A*0201 class I MHC molecules in cells infected with the PR8 strain of influenza A virus (Homo sapiens, UniProt P04439, D140Y/D185E/D98H/E176V/E277Q/G131W/G231S/I119V/I121R/I166T/I218V/L300P/L318F/N151K/N90K/P208A/P217A/Q86G/Q94H/R138H/R169H/T345S)
[3] = target: sHLA-A*0201 from MCF-7, MDA-MB-231, BT-20 and MCF10A (Homo sapiens, UniProt P04439, D140Y/D185E/D98H/E176V/E277Q/G131W/G231S/I119V/I121R/I166T/I218V/L300P/L318F/N151K/N90K/P208A/P217A/Q86G/Q94H/R138H/R169H/T345S); experiment: MS comparative analysis of sHLA-A*0201 peptides, breast cancer cell lines vs nontumorigenic MCF10A; settings: for FOLD INCREASE BT-20 over MCF10A / FOLD INCREASE MCF-7 over MCF10A / FOLD INCREASE MDA-MB-231 over MCF10A: peptide epitope presented on sHLA-A*0201; for FOLD INCREASE BT-20 over MCF10A: BT-20 vs nontumorigenic MCF10A; for FOLD INCREASE MCF-7 over MCF10A: MCF-7 vs nontumorigenic MCF10A; for FOLD INCREASE MDA-MB-231 over MCF10A: MDA-MB-231 vs nontumorigenic MCF10A

Row | Sequence | Fold Increase [1] | further results
1 | LLDVPTAA | Unique | 
2 | RLDDDGNFQL | Unique | 
3 | GLIEKNIEL (listed as Homo sapiens) |  | Fold Increase [2]: 1.58; presentation by HLA A*0201 of tumorigenic vs nontumorigenic cell lines ([3]; MCF-7, MDA-MB-231, BT-20 vs MCF10A): shared by all 4 cell lines
4 | ATWAENIQV | Unique | 
5 | YTMDGEYRL | Unique | 
6 | KIVVVTAGV | Unique | 
7 | NLMHISYE | Unique | 
8 | LDQSVTHL | Unique | 
9 | SVGGVFTSV | Unique | 
10 | SLFGQRIEN | Unique | 
11 | VLDELKVA | Unique | 
12 | SLLEKSLGL (listed as Homo sapiens) |  | Fold Increase [2]: 1.64; FOLD INCREASE BT-20 over MCF10A [3]: None; FOLD INCREASE MCF-7 over MCF10A [3]: 7.9; FOLD INCREASE MDA-MB-231 over MCF10A [3]: 7.4
13 | SLFGGSVKL |  | FOLD INCREASE BT-20 over MCF10A [3]: 1.3; FOLD INCREASE MCF-7 over MCF10A [3]: 5; FOLD INCREASE MDA-MB-231 over MCF10A [3]: 2.6
14 | FLKEPALNEA | Unique | 
